Measurements: paper PMC12269619 (2025)
Ends that are not written are not given here.

B1: Biotinylated junctional peptide Pep21 (PfCSP peptide 21) (peptide)
peptide: NPDPNANPNVDPNAN
modifications: also: biotinylated, position not given here

Legend:
P3-3 = experiment: BLI
P3-10 = experiment: BLI
P3-45 = experiment: BLI
P3-19 = experiment: BLI
P3-7 = experiment: BLI
P3-9 = experiment: BLI
P3-17 = experiment: BLI
PfCSPm [1] = experiment: BLI; KD1
PfCSPm [2] = experiment: BLI; KD2, second site
[3] = target: T1, Biotinylated junctional peptide NPDP19 (Plasmodium falciparum (isolate 3D7), also: biotinylated, position not given here); experiment: BLI
T1 chain: KQPADGNPDPNANPNVDPN

[4] = target: B1; experiment: BLI

B1
Kd (P3-3): 15.4 nM
Kd (P3-10): 20.4 nM
Kd (P3-45): 19 nM
Kd (P3-19): 14.6 nM
Kd (P3-7): 24 nM
Kd (P3-9): 21.8 nM
Kd (P3-17): 17.8 nM

B2: m43.151 Fab (Fab, V domains shown)
VH: QVHLVQSGAEVKKPGASVKVSCKASGYTFTSYAIHWVRQAPGQRLEWMGWIKGGNGNTRYSQKFQDRVTITRDTSASTAYMELSSLRSEDTAVYYCALLTVITPDDAFDIWGQGTMVTVSS
VL: not shown
Kd (PfCSPm [1]): 38.3 nM
Kd (PfCSPm [2]): 1700 nM
Kd [3]: 2.2 nM

B3: P3-43 Fab (m43.151 P100K_H) (Fab, V domains shown)
VH: QVHLVQSGAEVKKPGASVKVSCKASGYTFTSYAIHWVRQAPGQRLEWMGWIKGGNGNTRYSQKFQDRVTITRDTSASTAYMELSSLRSEDTAVYYCALLTVITKDDAFDIWGQGTMVTVSS
VL: not shown
Kd (PfCSPm [1]): 33.9 nM
Kd (PfCSPm [2]): 1700 nM
Kd [3]: 1.7 nM

B4: P3-21 Fab (m42.127 T99R_H P100Q_H) (Fab, V domains shown)
VH: QVQLVQSGAEVKKPGASVKVSCKASGYTFTSYAIHWVRQAPGQRLEWMGWIKAGNGNTRYSQKFQDRVTITRDTSASTAYMELSSLRSEDTAVYYCALLTVIRQDDTFDIWGQGTMVTVSS
VL: not shown
Kd (PfCSPm [1]): 20.2 nM
Kd [4]: 18 nM
Kd (PfCSPm [2]): 1200 nM
Kd [3]: 2 nM

B5: m42.127 Fab (Fab, V domains shown)
VH: QVQLVQSGAEVKKPGASVKVSCKASGYTFTSYAIHWVRQAPGQRLEWMGWIKAGNGNTRYSQKFQDRVTITRDTSASTAYMELSSLRSEDTAVYYCALLTVITPDDTFDIWGQGTMVTVSS
VL: not shown
Kd (PfCSPm [1]): 31.6 nM
Kd (PfCSPm [2]): 2000 nM
Kd [3]: 2.2 nM

B6: P3-42 Fab (m43.151 A100cR_H) (Fab, V domains shown)
VH: QVHLVQSGAEVKKPGASVKVSCKASGYTFTSYAIHWVRQAPGQRLEWMGWIKGGNGNTRYSQKFQDRVTITRDTSASTAYMELSSLRSEDTAVYYCALLTVITPDDRFDIWGQGTMVTVSS
VL: not shown
Kd (PfCSPm [1]): 13 nM
Kd [4]: 14.5 nM
Kd (PfCSPm [2]): 3400 nM
Kd [3]: 2.6 nM
